From paper PMC9728385 come the findings set out here.

In the data set the target is TtCST WT (Ctc1-Stn1-Ten1, co-expressed with p50) (Tetrahymena, UniProt A0PGB2;Q6JXI5;D2CVN7;D2CVN8 1-622;1-373;1-164;1-422). The experiment in a line: EMSA. In general terms: A gel shift assay detects complexes by their altered migration in electrophoresis.

As usually defined, the Kd is a measure of binding affinity in units of concentration.

TtCST WT (Ctc1-Stn1-Ten1, co-expressed with p50), sequence (A0PGB2 whole entry, chain 1 of 4): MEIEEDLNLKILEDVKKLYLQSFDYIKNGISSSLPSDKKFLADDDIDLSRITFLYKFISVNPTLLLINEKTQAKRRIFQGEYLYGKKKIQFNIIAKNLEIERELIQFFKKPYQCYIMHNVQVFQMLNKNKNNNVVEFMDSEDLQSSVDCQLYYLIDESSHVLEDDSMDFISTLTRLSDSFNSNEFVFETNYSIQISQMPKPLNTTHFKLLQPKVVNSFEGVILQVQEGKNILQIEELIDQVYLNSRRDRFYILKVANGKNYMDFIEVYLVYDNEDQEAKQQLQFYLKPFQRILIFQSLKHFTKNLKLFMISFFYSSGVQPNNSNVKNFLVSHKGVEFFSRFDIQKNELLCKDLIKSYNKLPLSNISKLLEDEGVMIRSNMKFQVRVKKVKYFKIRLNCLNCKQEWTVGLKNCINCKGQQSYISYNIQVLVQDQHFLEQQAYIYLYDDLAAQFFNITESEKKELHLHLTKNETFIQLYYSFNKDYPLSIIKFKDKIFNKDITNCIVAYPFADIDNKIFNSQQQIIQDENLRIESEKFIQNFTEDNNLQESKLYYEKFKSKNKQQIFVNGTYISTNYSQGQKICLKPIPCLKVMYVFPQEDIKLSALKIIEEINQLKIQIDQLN
TtCST WT (Ctc1-Stn1-Ten1, co-expressed with p50), sequence (Q6JXI5 whole entry, chain 2 of 4): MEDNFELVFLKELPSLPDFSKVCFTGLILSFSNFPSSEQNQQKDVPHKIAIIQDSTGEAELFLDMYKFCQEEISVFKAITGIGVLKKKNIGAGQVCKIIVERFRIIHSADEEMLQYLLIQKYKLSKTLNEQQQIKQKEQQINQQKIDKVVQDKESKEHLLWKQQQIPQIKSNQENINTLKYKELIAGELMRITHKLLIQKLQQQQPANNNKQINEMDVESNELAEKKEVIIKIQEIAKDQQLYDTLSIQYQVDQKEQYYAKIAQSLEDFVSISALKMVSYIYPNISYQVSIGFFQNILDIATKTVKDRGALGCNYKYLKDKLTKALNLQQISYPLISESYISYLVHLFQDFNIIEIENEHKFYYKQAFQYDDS
TtCST WT (Ctc1-Stn1-Ten1, co-expressed with p50), sequence (D2CVN7 whole entry, chain 3 of 4): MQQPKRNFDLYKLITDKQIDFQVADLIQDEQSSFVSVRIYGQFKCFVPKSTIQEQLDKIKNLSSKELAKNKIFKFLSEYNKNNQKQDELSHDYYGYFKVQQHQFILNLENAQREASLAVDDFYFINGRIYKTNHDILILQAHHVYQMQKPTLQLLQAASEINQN
TtCST WT (Ctc1-Stn1-Ten1, co-expressed with p50), sequence (D2CVN8 whole entry, chain 4 of 4): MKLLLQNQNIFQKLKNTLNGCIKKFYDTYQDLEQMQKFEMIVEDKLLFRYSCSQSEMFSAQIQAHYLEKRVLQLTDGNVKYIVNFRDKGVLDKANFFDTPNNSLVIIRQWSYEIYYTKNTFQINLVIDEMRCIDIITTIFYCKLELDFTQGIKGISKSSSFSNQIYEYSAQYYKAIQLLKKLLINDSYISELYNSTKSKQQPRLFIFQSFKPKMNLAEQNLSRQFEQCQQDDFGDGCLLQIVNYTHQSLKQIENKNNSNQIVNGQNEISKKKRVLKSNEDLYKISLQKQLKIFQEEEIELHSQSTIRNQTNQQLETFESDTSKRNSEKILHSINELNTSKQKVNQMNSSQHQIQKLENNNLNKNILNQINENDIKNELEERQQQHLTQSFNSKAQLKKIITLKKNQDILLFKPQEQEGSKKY

GTTGGGGTTGGGGTTGGGGTTGGGGTTGGG (ssDNA) [d(GTTGGG)5] showed an equilibrium dissociation constant (Kd) of 180 nM.
